For the first assay, the target named is HLA-A*0101 (human). Briefly: peptide-HLA binding inhibition assay.
What is called IC50 is the midpoint of a concentration-inhibition curve. A higher IC50 goes with a need for much substance. As for YSLNFMGY (modifications not checked) [HBV pol 580 epitope YSLNFMGY], the half-inhibitory concentration (IC50) was determined as 382 nM.
LTFGRETVLEY (modifications not checked) [HBV core 137 epitope …] registered a concentration for half-maximal inhibition (IC50) of 80 nM. Compared with the last molecule, the IC50 is about 4.8-fold lower.

The next assay concerns the target HLA-A*2402 (human). Briefly: peptide-HLA binding inhibition assay.
As to GYPALMPLY (modifications not checked) [HBV pol 639 epitope …], the IC50 worked out at 280 nM. That is a sub-micromolar value.
In turn, SFCGSPYSW (modifications not checked) [HBV pol 167 epitope …] returned a half-inhibitory concentration (IC50) of 146 nM.
Turning to LWFHISCLTF (modifications not checked) [HBV core 101 epitope …], the IC50 is 6.7 nM.
Same read-out and setting: the same measure for RFSWLSLLVPF (modifications not checked) [HBV env 332 epitope …]: 12 nM.

Source of the values: US20100068218A1.
